B1: ATL3 (parent)
chain: QELEEEIKELYENFCKHNGSKNVF
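Also: lentivirally expressed fusions sorted by FACS into six bins by GFP to DsRed ratio, PSI derived from sequencing read proportions per bin multiplied by bin number.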

Variants of: B1
Assay: protein stability index of a GFP-peptide fusion (GPS, HEK-293T) (PSI 1-6); higher = more stable
Conditions: c terminus: a fixed tail appended
QELEVEIKELYENFCKHNGSKNVF showed a protein stability index of 2.15.
Work on QELEEEIKELYPNFCKHNGSKNVF yielded a protein stability index of 3.31.
For QELEEEIKELYENFCKHNGQKNVF, the protein stability index was 2.45.
For QELEEEIKELYEYFCKHNGSKNVF, the protein stability index was 2.34.
With QELEEEIKELYENKCKHNGSKNVF the protein stability index was 4.5.
With QELEEEIKELYENNCKHNGSKNVF the protein stability index was 4.55.
QEFEEEIKELYENFCKHNGSKNVF gave a protein stability index of 3.54.
For QELEEEIKALYENFCKHNGSKNVF, the protein stability index was 2.37.
For QELEEEIKELSENFCKHNGSKNVF, the protein stability index was 4.61.
For QELEEEIKELYEEFCKHNGSKNVF, the protein stability index was 2.11.
For QELEEEIKELYENFCKHNGSKNVN, the protein stability index was 3.07.
QELEEEIKELYENFCKHNVSKNVF gave a protein stability index of 2.35.
Work on QELEEEIKELYENFCKANGSKNVF yielded a protein stability index of 2.52.
For SELEEEIKELYENFCKHNGSKNVF, the protein stability index was 3.41.
Work on QELEEDIKELYENFCKHNGSKNVF yielded a protein stability index of 3.59.
In the case of QELEEEIKELYENFCKHNGSKNVH, the protein stability index is reported as 3.37.
Variant QELEEEIKELYERFCKHNGSKNVF has a protein stability index of 2.55.
Work on QELEEEIKYLYENFCKHNGSKNVF yielded a protein stability index of 2.09.
QELEEEIKELYENFCKHNGSKWVF showed a protein stability index of 1.48.
QELEEKIKELYENFCKHNGSKNVF gave a protein stability index of 2.48.
QELEENIKELYENFCKHNGSKNVF showed a protein stability index of 3.29.
For QELEEEIKELYENFCAHNGSKNVF, the protein stability index was 3.17.
For QELEEEIKELYENFCKHNGPKNVF, the protein stability index was 3.46.
QELEEEIKELYENFCKHNGSWNVF showed a protein stability index of 1.81.
For QELEEEIKELYINFCKHNGSKNVF, the protein stability index was 2.27.
Work on QELEEEIKELYENFCKSNGSKNVF yielded a protein stability index of 2.62.
For QEPEEEIKELYENFCKHNGSKNVF, the protein stability index was 3.9.
In the case of QELEEEIKELYENFCKHNGSKVVF, the protein stability index is reported as 2.62.
QEWEEEIKELYENFCKHNGSKNVF showed a protein stability index of 2.21.
QELEEEIKELYENFCKHNGSANVF showed a protein stability index of 2.25.
For QELEEEIKELYLNFCKHNGSKNVF, the protein stability index was 2.12.
For QELEEEIKECYENFCKHNGSKNVF, the protein stability index was 4.14.
Work on QELEEEIKELYANFCKHNGSKNVF yielded a protein stability index of 2.37.
For QELEEEIKELYENFCKHNGSKNVW, the protein stability index was 2.46.
For QELEEEIKELYKNFCKHNGSKNVF, the protein stability index was 2.67.
QELEEEIKEIYENFCKHNGSKNVF showed a protein stability index of 3.14.
Work on QELEEEIKTLYENFCKHNGSKNVF yielded a protein stability index of 2.59.
For QELEEEIKELYEMFCKHNGSKNVF, the protein stability index was 1.79.
For QELEEEIKELAENFCKHNGSKNVF, the protein stability index was 4.25.
Work on QELEEEIKERYENFCKHNGSKNVF yielded a protein stability index of 4.2.
Work on QELEEEIKELYENACKHNGSKNVF yielded a protein stability index of 4.29.
In the case of QELEEEIKELYEHFCKHNGSKNVF, the protein stability index is reported as 2.83.
QELEEEIKELYENFCKHPGSKNVF showed a protein stability index of 2.72.
In the case of QELEEEIKELYENFCKHVGSKNVF, the protein stability index is reported as 2.58.
For QELEEEIKWLYENFCKHNGSKNVF, the protein stability index was 2.41.
For QELEIEIKELYENFCKHNGSKNVF, the protein stability index was 1.8.
In the case of QELEEIIKELYENFCKHNGSKNVF, the protein stability index is reported as 1.78.
Work on QELEEEIKELYENFCKHNWSKNVF yielded a protein stability index of 1.91.
QELEEEIKELMENFCKHNGSKNVF gave a protein stability index of 3.96.
QELEEEINELYENFCKHNGSKNVF showed a protein stability index of 2.45.
Variant QELEEEIKELYENFCNHNGSKNVF has a protein stability index of 2.36.
QELEEEIKELYEIFCKHNGSKNVF gave a protein stability index of 2.13.
In the case of WELEEEIKELYENFCKHNGSKNVF, the protein stability index is reported as 2.03.
QELEEEIKELYENFCKHMGSKNVF gave a protein stability index of 2.69.
In the case of QELREEIKELYENFCKHNGSKNVF, the protein stability index is reported as 2.66.
For QELEEEIKELYYNFCKHNGSKNVF, the protein stability index was 2.03.
Variant QELEEEIKELYENFCKHNASKNVF has a protein stability index of 2.59.
Variant QRLEEEIKELYENFCKHNGSKNVF has a protein stability index of 2.8.
QELEEEIKELYENFCKHNGSKNVS gave a protein stability index of 3.28.
Variant AELEEEIKELYENFCKHNGSKNVF has a protein stability index of 2.22.
Variant QELEEEIKELYENFCKNNGSKNVF has a protein stability index of 2.51.
For QELEEEIKEWYENFCKHNGSKNVF, the protein stability index was 3.06.
Variant QELEKEIKELYENFCKHNGSKNVF has a protein stability index of 2.21.
With QELEEEIKELYENFCCHNGSKNVF the protein stability index was 3.43.
QELEEEIKELYENFCKHNGSKNNF showed a protein stability index of 3.06.
Work on QELEEEIKELYENFGKHNGSKNVF yielded a protein stability index of 4.07.
QELEEEIKELYENFCKRNGSKNVF gave a protein stability index of 2.6.
Work on QELEESIKELYENFCKHNGSKNVF yielded a protein stability index of 2.85.
For QELEEECKELYENFCKHNGSKNVF, the protein stability index was 4.23.
In the case of QELENEIKELYENFCKHNGSKNVF, the protein stability index is reported as 2.51.
Variant QELEEEIKELYENFCKHNGSKNVA has a protein stability index of 3.45.
In the case of HELEEEIKELYENFCKHNGSKNVF, the protein stability index is reported as 3.17.
In the case of QELEEETKELYENFCKHNGSKNVF, the protein stability index is reported as 4.24.
QELEEEQKELYENFCKHNGSKNVF gave a protein stability index of 4.5.
QELEEEEKELYENFCKHNGSKNVF showed a protein stability index of 4.94.
QELEEEIKEAYENFCKHNGSKNVF showed a protein stability index of 3.48.
YELEEEIKELYENFCKHNGSKNVF gave a protein stability index of 2.2.
In the case of QELVEEIKELYENFCKHNGSKNVF, the protein stability index is reported as 2.26.
QELEEEIKELYNNFCKHNGSKNVF showed a protein stability index of 2.53.
QYLEEEIKELYENFCKHNGSKNVF showed a protein stability index of 2.47.
QELPEEIKELYENFCKHNGSKNVF showed a protein stability index of 3.51.
QELEEEIKELYENFCKHGGSKNVF gave a protein stability index of 2.34.
For QELEEEIKELYENFCKHNGSTNVF, the protein stability index was 2.08.
QELEEEIKEVYENFCKHNGSKNVF gave a protein stability index of 4.12.
In the case of QELEEEIKGLYENFCKHNGSKNVF, the protein stability index is reported as 2.44.
QELEEEIKELYENFCKHEGSKNVF showed a protein stability index of 2.36.
For QELEEEIKELYENFCKHNGSKNQF, the protein stability index was 2.68.
In the case of QELEEEIKELYENFCKHNSSKNVF, the protein stability index is reported as 3.18.
For QELEEEIKELYENFCKHNGSKNKF, the protein stability index was 2.89.
With QEREEEIKELYENFCKHNGSKNVF the protein stability index was 4.33.
With QELEEEIKELYENFCKHYGSKNVF the protein stability index was 2.37.
In the case of QELEEEIKLLYENFCKHNGSKNVF, the protein stability index is reported as 1.64.
In the case of QELEEEIKELYENFCKHNGSKNVQ, the protein stability index is reported as 2.93.
In the case of QELEEEIKELYENFSKHNGSKNVF, the protein stability index is reported as 3.89.
